In article PMC3626704 (BMC Biochemistry, 2013):

T1: 6-Helix-Fd (HIV-1 gp41 (HXB2-like, printed sequence), stabilised)
T1 construct: also called post-fusion six-helix bundle mimic
T1 chain: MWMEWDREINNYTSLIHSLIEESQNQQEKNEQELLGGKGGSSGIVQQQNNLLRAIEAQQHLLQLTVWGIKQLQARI


The binders below were run against T2, 5-Helix (HIV-1 group M subtype B, HXB2 (gp41 …, stabilised)) (assay: ELISA). Conditions: one partner purified.
T2 construct: also called designed protein based on HIV-1 gp41

| Binder | F_competitive (signal with 40 nM free 5-Helix / signal without) [fraction] | phage ELISA signal OD450 [OD450] |
| --- | --- | --- |
| 16F6 bivalent scFv on phage (scFv, V domains shown) VH: QVQLVQSGAEVRKPGASVKVSCKASGDTFSSYAISWVRQAPGQGLEWMGGIIPIFGTANYAQAFQGRVTITANESTSTAYMELSSLRSEDTAIYYCARDNPTLLGSDYWGAGTLVTVSS VL: DIQMTQSPSTLSASIGDRVTITCRASESISSILAWYQQKPGKAPKLLISNASRLASGAPSRFSGSGSGTDFTLTISSLQPDDFATYYCQQRSNYPFTFGGGTKLEIK | 0.8 | 3 |
| 25C5 bivalent scFv on phage (scFv, V domains shown) VH: QVQLVQSGAEVRKPGASVKVSCKASGDTFSSYAISWVRQAPGQGLEWMGGIIPIFGTANYAQAFQGRVTITANESTSTAYMELSSLRSEDTAIYYCARDNPTLLGSDYWGAGTLVTVSS VL: DIQMTQSPSTLSASIGDRVTITCRASEDIHDYLAWYQQKPGKAPKLLISRASRLASGAPSRFSGSGSGTDFTLTISSLQPDDFATYYCQQNDSYPYTFGGGTKLEIK | 0.5 | 0.7 |
| 25C4 bivalent scFv on phage (scFv, V domains shown) VH: QVQLVQSGAEVRKPGASVKVSCKASGDTFSSYAISWVRQAPGQGLEWMGGIIPIFGTANYAQAFQGRVTITANESTSTAYMELSSLRSEDTAIYYCARDNPTLLGSDYWGAGTLVTVSS VL: DIQMTQSPSTLSASIGDRVTITCRASESILGSLAWYQQKPGKAPKLLIYRASHLASGAPSRFSGSGSGTDFTLTISSLQPDDFATYYCQQYSNYPLTFGGGTKLEIK | 0.1 | 2.5 |
| 25F12 bivalent scFv on phage (scFv, V domains shown) VH: QVQLVQSGAEVRKPGASVKVSCKASGDTFSSYAISWVRQAPGQGLEWMGGIIPIFGTANYAQAFQGRVTITANESTSTAYMELSSLRSEDTAIYYCARDNPTLLGSDYWGAGTLVTVSS VL: DIQMTQSPSTLSASIGDRVTITCRASEGIIGHLAWYQQKPGKAPKLLIYNASRLASGAPSRFSGSGSGTDFTLTISSLQPDDFATYYCQQRDDYPLTFGGGTKLEIK | 0.2 | 2.7 |
| 16G6 bivalent scFv on phage (scFv, V domains shown) VH: QVQLVQSGAEVRKPGASVKVSCKASGDTFSSYAISWVRQAPGQGLEWMGGIIPIFGTANYAQAFQGRVTITANESTSTAYMELSSLRSEDTAIYYCARDNPTLLGSDYWGAGTLVTVSS VL: DIQMTQSPSTLSASIGDRVTITCRASEGIRRSLAWYQQKPGKAPKLLISNASHLASGAPSRFSGSGSGTDFTLTISSLQPDDFATYYCQQYYNYPRTFGGGTKLEIK | 0.3 | 2.3 |
| 2H10 bivalent scFv on phage (scFv, V domains shown) VH: QVQLVQSGAEVRKPGASVKVSCKASGDTFSSYAISWVRQAPGQGLEWMGGIIPIFGTANYAQAFQGRVTITANESTSTAYMELSSLRSEDTAIYYCARDNPTLLGSDYWGAGTLVTVSS VL: DIQMTQSPSTLSASIGDRVTITCRASEDIYRSLAWYQQKPGKAPKLLISRASRLASGAPSRFSGSGSGTDFTLTISSLQPDDFATYYCQQYSNYPLTFGGGTKLEIK | 0.1 | 1.9 |
| 25A6 bivalent scFv on phage (scFv, V domains shown) VH: QVQLVQSGAEVRKPGASVKVSCKASGDTFSSYAISWVRQAPGQGLEWMGGIIPIFGTANYAQAFQGRVTITANESTSTAYMELSSLRSEDTAIYYCARDNPTLLGSDYWGAGTLVTVSS VL: DIQMTQSPSTLSASIGDRVTITCRASEGIYDGLAWYQQKPGKAPKLLISRAYYLASGAPSRFSGSGSGTDFTLTISSLQPDDFATYYCQQRANYPHTFGGGTKLEIK | 0.1 | 3.1 |
| 25A5 bivalent scFv on phage (scFv, V domains shown) VH: QVQLVQSGAEVRKPGASVKVSCKASGDTFSSYAISWVRQAPGQGLEWMGGIIPIFGTANYAQAFQGRVTITANESTSTAYMELSSLRSEDTAIYYCARDNPTLLGSDYWGAGTLVTVSS VL: DIQMTQSPSTLSASIGDRVTITCRASESIRSHLAWYQQKPGKAPKLLISRASRLASGAPSRFSGSGSGTDFTLTISSLQPDDFATYYCQQSSDYPHTFGGGTKLEIK | 0.1 | 3.5 |
| 16E3 bivalent scFv on phage (scFv, V domains shown) VH: QVQLVQSGAEVRKPGASVKVSCKASGDTFSSYAISWVRQAPGQGLEWMGGIIPIFGTANYAQAFQGRVTITANESTSTAYMELSSLRSEDTAIYYCARDNPTLLGSDYWGAGTLVTVSS VL: DIQMTQSPSTLSASIGDRVTITCRASEGIRYGLAWYQQKPGKAPKLLISRASRLASGAPSRFSGSGSGTDFTLTISSLQPDDFATYYCQQHYAYPHTFGGGTKLEIK | 0.7 | 3 |
| 16F5 bivalent scFv on phage (scFv, V domains shown) VH: QVQLVQSGAEVRKPGASVKVSCKASGDTFSSYAISWVRQAPGQGLEWMGGIIPIFGTANYAQAFQGRVTITANESTSTAYMELSSLRSEDTAIYYCARDNPTLLGSDYWGAGTLVTVSS VL: DIQMTQSPSTLSASIGDRVTITCRASENINDHLAWYQQKPGKAPKLLISRAYRLASGAPSRFSGSGSGTDFTLTISSLQPDDFATYYCQQYADTPFTFGGGTKLEIK | 0.2 | 3 |
| 25B4 bivalent scFv on phage (scFv, V domains shown) VH: QVQLVQSGAEVRKPGASVKVSCKASGDTFSSYAISWVRQAPGQGLEWMGGIIPIFGTANYAQAFQGRVTITANESTSTAYMELSSLRSEDTAIYYCARDNPTLLGSDYWGAGTLVTVSS VL: DIQMTQSPSTLSASIGDRVTITCRASEGIRNGLAWYQQKPGKAPKLLISRASHLASGAPSRFSGSGSGTDFTLTISSLQPDDFATYYCQQYYAYPHTFGGGTKLEIK | 0.1 | 2.9 |
| 16B7 bivalent scFv on phage (scFv, V domains shown) VH: QVQLVQSGAEVRKPGASVKVSCKASGDTFSSYAISWVRQAPGQGLEWMGGIIPIFGTANYAQAFQGRVTITANESTSTAYMELSSLRSEDTAIYYCARDNPTLLGSDYWGAGTLVTVSS VL: DIQMTQSPSTLSASIGDRVTITCRASENILRLLAWYQQKPGKAPKLLIYYASSLASGAPSRFSGSGSGTDFTLTISSLQPDDFATYYCQQRADYPYTFGGGTKLEIK | 0.6 | 3 |
| 25B8 bivalent scFv on phage (scFv, V domains shown) VH: QVQLVQSGAEVRKPGASVKVSCKASGDTFSSYAISWVRQAPGQGLEWMGGIIPIFGTANYAQAFQGRVTITANESTSTAYMELSSLRSEDTAIYYCARDNPTLLGSDYWGAGTLVTVSS VL: DIQMTQSPSTLSASIGDRVTITCRASENINRNLAWYQQKPGKAPKLLISRASRLASGAPSRFSGSGSGTDFTLTISSLQPDDFATYYCQQRYNYPYTFGGGTKLEIK | 0.2 | 2.9 |
| 16D10 bivalent scFv on phage (scFv, V domains shown) VH: QVQLVQSGAEVRKPGASVKVSCKASGDTFSSYAISWVRQAPGQGLEWMGGIIPIFGTANYAQAFQGRVTITANESTSTAYMELSSLRSEDTAIYYCARDNPTLLGSDYWGAGTLVTVSS VL: DIQMTQSPSTLSASIGDRVTITCRASENIRGSLAWYQQKPGKAPKLLIYRASRLASGAPSRFSGSGSGTDFTLTISSLQPDDFATYYCQQHSDYPHTFGGGTKLEIK | 0.7 | 3 |
| 16E12 bivalent scFv on phage (scFv, V domains shown) VH: QVQLVQSGAEVRKPGASVKVSCKASGDTFSSYAISWVRQAPGQGLEWMGGIIPIFGTANYAQAFQGRVTITANESTSTAYMELSSLRSEDTAIYYCARDNPTLLGSDYWGAGTLVTVSS VL: DIQMTQSPSTLSASIGDRVTITCRASEGIRRSLAWYQQKPGKAPKLLISNASHLASGAPSRFSGSGSGTDFTLTISSLQPDDFATYYCQQYYNYPRTFGGGTKLEIK | 0.1 | 3.1 |
| 16E8 bivalent scFv on phage (scFv, V domains shown) VH: QVQLVQSGAEVRKPGASVKVSCKASGDTFSSYAISWVRQAPGQGLEWMGGIIPIFGTANYAQAFQGRVTITANESTSTAYMELSSLRSEDTAIYYCARDNPTLLGSDYWGAGTLVTVSS VL: DIQMTQSPSTLSASIGDRVTITCRASESIYGSLAWYQQKPGKAPKLLISHASHLASGAPSRFSGSGSGTDFTLTISSLQPDDFATYYCQQNDTYPHTFGGGTKLEIK | 0.4 | 3 |
| 25E1 bivalent scFv on phage (scFv, V domains shown) VH: QVQLVQSGAEVRKPGASVKVSCKASGDTFSSYAISWVRQAPGQGLEWMGGIIPIFGTANYAQAFQGRVTITANESTSTAYMELSSLRSEDTAIYYCARDNPTLLGSDYWGAGTLVTVSS VL: DIQMTQSPSTLSASIGDRVTITCRASEDIGGSLAWYQQKPGKAPKLLISHAYSLASGAPSRFSGSGSGTDFTLTISSLQPDDFATYYCQQHATYPHTFGGGTKLEIK | 0.1 | 3 |

These binders were tested against T2, 5-Helix (assay: ELISA; competitive phage ELISA, on-phage bivalent scFv: binding to immobilised 5-Helix inhibited by free 5-Helix or free 6-Helix-Fd (concentrations for the trimer); apparent). Conditions: one partner purified.

| Binder | IC50 [nM] |
| --- | --- |
| 25B8 bivalent scFv on phage (scFv, V domains shown) VH: QVQLVQSGAEVRKPGASVKVSCKASGDTFSSYAISWVRQAPGQGLEWMGGIIPIFGTANYAQAFQGRVTITANESTSTAYMELSSLRSEDTAIYYCARDNPTLLGSDYWGAGTLVTVSS VL: DIQMTQSPSTLSASIGDRVTITCRASENINRNLAWYQQKPGKAPKLLISRASRLASGAPSRFSGSGSGTDFTLTISSLQPDDFATYYCQQRYNYPYTFGGGTKLEIK | 3.1 |
| D5 bivalent scFv (biv-scFv) displayed on M13 phage (scFv, V domains shown) VH: QVQLVQSGAEVRKPGASVKVSCKASGDTFSSYAISWVRQAPGQGLEWMGGIIPIFGTANYAQAFQGRVTITANESTSTAYMELSSLRSEDTAIYYCARDNPTLLGSDYWGAGTLVTVSS VL: DIQMTQSPSTLSASIGDRVTITCRASEGIYHWLAWYQQKPGKAPKLLIYKASSLASGAPSRFSGSGSGTDFTLTISSLQPDDFATYYCQQYSNYPLTFGGGTKLEIK | 0.1 |

Target: T1, 6-Helix-Fd
Test: as above
Conditions: one partner purified

| Binder | IC50 [nM] |
| --- | --- |
| 25B8 bivalent scFv on phage (scFv, V domains shown) VH: QVQLVQSGAEVRKPGASVKVSCKASGDTFSSYAISWVRQAPGQGLEWMGGIIPIFGTANYAQAFQGRVTITANESTSTAYMELSSLRSEDTAIYYCARDNPTLLGSDYWGAGTLVTVSS VL: DIQMTQSPSTLSASIGDRVTITCRASENINRNLAWYQQKPGKAPKLLISRASRLASGAPSRFSGSGSGTDFTLTISSLQPDDFATYYCQQRYNYPYTFGGGTKLEIK | ~100 |
| D5 bivalent scFv (biv-scFv) displayed on M13 phage (scFv, V domains shown) VH: QVQLVQSGAEVRKPGASVKVSCKASGDTFSSYAISWVRQAPGQGLEWMGGIIPIFGTANYAQAFQGRVTITANESTSTAYMELSSLRSEDTAIYYCARDNPTLLGSDYWGAGTLVTVSS VL: DIQMTQSPSTLSASIGDRVTITCRASEGIYHWLAWYQQKPGKAPKLLIYKASSLASGAPSRFSGSGSGTDFTLTISSLQPDDFATYYCQQYSNYPLTFGGGTKLEIK | 11 |
